Measurements: publication PMC3967914

Target: MHF1 (CENP-S);MHF2 (CENP-X) (Homo sapiens;Homo sapiens, UniProt Q8N2Z9;A8MT69 1-138;1-81, |)
Experiment: X-ray crystallography

MHF1 (CENP-S);MHF2 (CENP-X), sequence (Q8N2Z9 whole entry, chain 1 of 2): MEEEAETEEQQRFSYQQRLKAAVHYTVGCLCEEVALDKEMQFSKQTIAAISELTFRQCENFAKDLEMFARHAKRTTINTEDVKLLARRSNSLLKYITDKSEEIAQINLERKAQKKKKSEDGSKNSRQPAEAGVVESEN
MHF1 (CENP-S);MHF2 (CENP-X), sequence (A8MT69 whole entry, chain 2 of 2): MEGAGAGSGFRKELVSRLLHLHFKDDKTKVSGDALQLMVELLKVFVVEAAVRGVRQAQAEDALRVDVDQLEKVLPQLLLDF

B1: 26 bp dsDNA (crystal) (dsDNA)
DNA 1: ATCAATATCCACCGGTGGATATTGAT
DNA 2: ATCAATATCCACCGGTGGATATTGAT
- binding result: binds
